Measured values taken from patent US20190271710A1.

Columns and labels:
[1] = target: p217+ tau peptides (endogenous human tau protein or tau fragments phosphorylated at T217 and/or T212) (human) (UniProt P10636); assay: Simoa sandwich ELISA, pT3 capture beads, pooled AD CSF diluted 1:2
[2] = target: p217+ tau peptides (endogenous human tau protein or tau fragments phosphorylated at T217 and/or T212) (human) (UniProt P10636); assay: Simoa sandwich ELISA, pT3 capture beads, pooled AD CSF diluted 1:4
[3] = target: p217+ tau peptides (endogenous human tau protein or tau fragments phosphorylated at T217 and/or T212) (human) (UniProt P10636); assay: Simoa sandwich ELISA, pT3 capture beads, pooled AD CSF diluted 1:8
[4] = target: p217+ tau peptides (endogenous human tau protein or tau fragments phosphorylated at T217 and/or T212) (human) (UniProt P10636); assay: Simoa sandwich ELISA, pT3 capture beads, pooled AD CSF diluted 1:16
[5] = target: p217+ tau peptides (endogenous human tau protein or tau fragments phosphorylated at T217 and/or T212) (human) (UniProt P10636); assay: Simoa sandwich ELISA, pT3 capture beads, pooled AD CSF diluted 1:32
[6] = target: p217+ tau peptides (endogenous human tau protein or tau fragments phosphorylated at T217 and/or T212) (human) (UniProt P10636); assay: Simoa sandwich ELISA, pT3 capture beads, pooled AD CSF diluted 1:64

p217+ tau peptides (endogenous human tau protein or tau fragments phosphorylated at T217 and/or T212) (human), sequence (P10636 other isoform, or with tags, fused parts or gaps limits assumed): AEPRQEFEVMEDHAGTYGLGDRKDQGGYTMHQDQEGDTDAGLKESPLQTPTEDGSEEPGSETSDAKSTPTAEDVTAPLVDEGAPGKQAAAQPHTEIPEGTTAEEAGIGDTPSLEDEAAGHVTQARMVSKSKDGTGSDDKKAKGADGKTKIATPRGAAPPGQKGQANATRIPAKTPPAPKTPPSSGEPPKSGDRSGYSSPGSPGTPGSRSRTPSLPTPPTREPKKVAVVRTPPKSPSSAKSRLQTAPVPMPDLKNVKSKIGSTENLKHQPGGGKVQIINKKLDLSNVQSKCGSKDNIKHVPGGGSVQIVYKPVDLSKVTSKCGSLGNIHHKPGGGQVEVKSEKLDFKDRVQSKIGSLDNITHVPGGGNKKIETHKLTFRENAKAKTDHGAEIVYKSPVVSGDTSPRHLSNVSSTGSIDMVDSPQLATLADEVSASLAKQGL

S/N @ 1:2 dilution [1]: 525 S/N | S/N @ 1:4 dilution [2]: 262 S/N | S/N @ 1:8 dilution [3]: 147 S/N | S/N @ 1:16 dilution [4]: 75 S/N | S/N @ 1:32 dilution [5]: 35 S/N | S/N @ 1:64 dilution [6]: 19 S/N
Substance: Quanterix tau 2.0 assay detector (antibody)
